From publication PMC9765544, “Metabolic Mechanism and Physiological Role of Glycerol 3-Phosphate in Pseudomonas aeruginosa PAO1” (mBio, 2022) come the findings set out here.

The term Km denotes the substrate concentration at which the rate is half of its maximum.

Data set [1] concerns the target T1, GlpR (Pseudomonas aeruginosa, UniProt Q51391).
T1 construct: recombinant from pETDuet-glpR in E. coli BL21(DE3), HisTrap HP purified
T1 sequence (Q51391 1-251): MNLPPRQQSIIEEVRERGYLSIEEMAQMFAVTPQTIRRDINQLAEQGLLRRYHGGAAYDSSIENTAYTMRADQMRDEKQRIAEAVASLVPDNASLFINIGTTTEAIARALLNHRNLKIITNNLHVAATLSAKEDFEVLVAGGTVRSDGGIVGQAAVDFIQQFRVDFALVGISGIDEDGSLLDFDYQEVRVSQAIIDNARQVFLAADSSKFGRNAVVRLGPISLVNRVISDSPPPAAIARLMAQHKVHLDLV
As to the kind of experiment: EMSA, prevention of GlpR binding to glpFK and glpD promoter DNA. Particulars: 10 mM G3P (lithium salt), 500 nM GlpR, 3.5 nM DNA probe, pH 7.4, 30 °C; effector (inducer). (A gel shift assay detects complexes by their altered migration in electrophoresis.)

For data set [2], the system named is O=P(O)(O)OC[C@H](O)CO. The data set can be described thus: purified protein. The following applies: 5 mM MgCl2, 50 mM Tris-HCl pH 7.0, bis(cyclohexylammonium) salt.
Substrate in data set [3]: O=P(O)(O)OC[C@H](O)CO
As to the kind of experiment: released inorganic phosphate, Michaelis-Menten regression. The data set is classed as biochemical, Pseudomonas aeruginosa. Particulars: 5 mM MgCl2, 50 mM Tris-HCl pH 7.0, bis(cyclohexylammonium) salt.

Turning to `O=P(O)(O)OC[C@H](O)CO` [G3P], the “EMSA, prevention of GlpR binding to glpFK and glpD promoter DNA” value in data set [1] is “G3P prevents GlpR binding to the glpFK (D) and glpD (E) promoter regions”.

As for PA3172 (Pseudomonas aeruginosa PAO1), in data set [2], the Km was found to be 5.634 ± 0.209 mM.

B1: PA0562 (Pseudomonas aeruginosa PAO1) (protein)
chain: MPHPIDALISDCDGVLVDSEVIAERVMYEALSAYAPLEELQRLLEGTFGLTSRDILDRVEKHFGLRIPDSFNREVRQRSEEMVAQVQPIPGAREALLALDLPVAVASNSRRHSLERSLARAGLSELIGERLASADMVALPKPAPDVYLHAASLLGVAPERCLVVEDSSTGTRAALAAGMRVIGFVGAGHIPAGHAEVLRELGAIAIVEHMRELPETVARLRRTV
Consider B1, for which the Km in data set [3] came to 8.937 ± 1.350 mM.
